Reference: US11191823 (CHILDREN S MEDICAL CENTER, dated 2021)
Where “and” joins values, the source holds several entries; their conditions need not be identical. Equal entries are not always repeated.

Experiments:
[1] = biological target: T1, JUNV GP1 (residues 87-235), biotinylated (Junin virus (JUNV), UniProt P26313 87-235); assay: ELISA, plates coated with biotinylated antigen, IgG titrated
[2] = biological target: T1, JUNV GP1 (residues 87-235), biotinylated; assay: SPR, Fab over immobilized JUNV GP1
[3] = biological target: T1, JUNV GP1 (residues 87-235), biotinylated; assay: ELISA, plates coated with antigen, IgG titrated
[4] = biological target: T1, JUNV GP1 (residues 87-235), biotinylated

B1: CR1-07 IgG (antibody, V domains shown)
VH: QVQLVESGGGVVHPGRSLRLSCAASGFTFGTSIMHWVRQAPGKGMQWVAQISHDESRKFYSDSVKGRFTVSRDNSKNTLFLEMSSLRIEDTAVYYCAKDLSPPYSYAWDIFQYWGQGSLVTVS
VL: DIVMTQSPESLAVSLGERATINCKSSQSVLYSSRSDNKDYLAWYQQKPGQSPKLLIYWASTRESGVPERFTGSGSGTDFTLSISSLQAEDVAVYYCQQYYSSPPTFGGGTKVELK
[1]
  EC50 (read off the curve): ~0.2 µg/mL

B2: CR1-07 Fab (Fab, V domains shown)
VH: QVQLVESGGGVVHPGRSLRLSCAASGFTFGTSIMHWVRQAPGKGMQWVAQISHDESRKFYSDSVKGRFTVSRDNSKNTLFLEMSSLRIEDTAVYYCAKDLSPPYSYAWDIFQYWGQGSLVTVS
VL: DIVMTQSPESLAVSLGERATINCKSSQSVLYSSRSDNKDYLAWYQQKPGQSPKLLIYWASTRESGVPERFTGSGSGTDFTLSISSLQAEDVAVYYCQQYYSSPPTFGGGTKVELK
[2]
  Kd: 86.2 nM

B3: GD01 IgG (antibody, V domains shown)
VH: EVKLQQSGAELARPGTSVKLSCKASGYTFTNYWMQWIKQRPGQGLEWIGAVYPGDGDTRFSQKFKGKATLTADKSSSTAYMQLSSLSSEDSAVYFCARRRVYYGSNYIYALDYWGQGTSVTVSA
VL: DIVMTQSQKFMSTSIGDRVSITCKASQNVGSAVAWYQQKPGQSPKLLIYSASNRYTGVPDRFIGSESGTDFTLTISNMQSEDLADYFCQQYSSYPLAFGAGTKLELK
[3]
  EC50 (read off the curve): ~0.1 µg/mL
[4]
  IC50 (read off the curve): ~8 µg/mL and ~7 µg/mL and ~10 µg/mL

B4: CR1-28 IgG (antibody, V domains shown)
VH: QVQLVESGGGVVQPGRSLRLSCAASGFTFSSSAMHWVRQAPGKGLEWVAVIWSDGSNENYADSVKGRFTISRDNSKNTLYLQMSSLRAEDTAVYYCATDKTYVSGYTSTWYYFNYWGQGTLVTVS
VL: DIQMTQSPSTLSASVGDRVTITCRASQSIDNWLAWYQQKPGKAPKLLIYTASRLESGVPSRFSGSGSGTEFTLTISSLQPDDFATYYCQHRTFGQGTKVEIK
[1]
  EC50 (read off the curve): ~0.1 µg/mL

B5: CR1-28 Fab (Fab, V domains shown)
VH: QVQLVESGGGVVQPGRSLRLSCAASGFTFSSSAMHWVRQAPGKGLEWVAVIWSDGSNENYADSVKGRFTISRDNSKNTLYLQMSSLRAEDTAVYYCATDKTYVSGYTSTWYYFNYWGQGTLVTVS
VL: DIQMTQSPSTLSASVGDRVTITCRASQSIDNWLAWYQQKPGKAPKLLIYTASRLESGVPSRFSGSGSGTEFTLTISSLQPDDFATYYCQHRTFGQGTKVEIK
[2]
  Kd: 5.3 nM
